Consider 9 molecules from patent US20260109763A1 (DENALI THERAPEUTICS, published 2026).

Like-named read-outs stand apart in the source and are kept apart here.

The target of assay [1] is T1, human PILRB extracellular domain (recombinant) (human, UniProt Q9UKJ0 20-191).
T1 construct: also called hPILRB
In words: SPR.

In assay [2] the target is T2, human PILRA G78 on cells (human, UniProt Q9UKJ1 20-303).
T2 construct: wild-type iMicroglia are R78/G78 heterozygous (said in the assay field); also called hPILRA; hPILRA G78
T2 sequence (Q9UKJ1 20-303 R78G limits assumed): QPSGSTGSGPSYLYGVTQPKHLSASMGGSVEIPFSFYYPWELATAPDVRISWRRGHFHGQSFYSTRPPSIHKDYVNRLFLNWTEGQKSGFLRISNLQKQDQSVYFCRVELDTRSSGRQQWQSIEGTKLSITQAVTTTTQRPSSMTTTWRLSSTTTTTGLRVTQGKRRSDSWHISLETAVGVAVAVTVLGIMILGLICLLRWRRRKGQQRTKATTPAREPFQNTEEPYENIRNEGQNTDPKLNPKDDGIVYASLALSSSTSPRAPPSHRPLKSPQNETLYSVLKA
In words: flow cytometry on PILRA G78 expressing CHO-K1 cells (FIG. 1H).
Method: (§1) PILRA G78 or R78 overexpressing HEK293 cells were stained with NucBlue Live cell stain for 30 mins at RT. […] Cell lines were run in duplicate to account for intra-variability, for a total of N=3. The same protocol was used for CHO-K1 cells expressing hPILRA G78.

For assay [3], the target named is T2, human PILRA G78 on cells. In words: cell-based or functional assay.
In assay [4] the target is T3, human PILRA R78 on cells (human, UniProt Q9UKJ1 20-303). In words: cell-based or functional assay.
T3 sequence (Q9UKJ1 20-303 limits assumed): as the sequence (Q9UKJ1 20-303 R78G limits assumed) above, with G59R counted along it
Assay [5] addresses T4, human PILRA G78 extracellular domain (recombinant hPILRA ECD) (human, UniProt Q9UKJ1 20-197).
T4 construct: also called hPILRA G78
In words: SPR, Biacore 8K; hPILRA ECD; antibody with wild-type Fc.

The target in assay [6] is T3, human PILRA R78 on cells. As to the kind of experiment: flow cytometry on PILRA R78 expressing HEK293 cells (FIG. 1F); HEK293 cells expressing PILRA R78.
Method: as §1
The target of assay [7] is T2, human PILRA G78 on cells. In words: flow cytometry on HEK293 cells expressing hPILRA G78.
The target of assay [8] is T1, human PILRB extracellular domain …. As to the kind of experiment: SPR. The source holds these as a separate data set.
For assay [9], the target named is T4, human PILRA G78 extracellular domain …. In words: SPR.
Assay [10] concerns the target T5, cynomolgus monkey PILRA extracellular domain (recombinant) (cynomolgus monkey).
T5 construct: also called cynoPILRA; Cyno PILRA
As to the kind of experiment: SPR.

In assay [11] the target is T6, human PILRA R78 extracellular domain (recombinant) (human, UniProt Q9UKJ1 20-197).
T6 construct: also called hPILRA R78
T6 sequence (Q9UKJ1 20-197 limits assumed): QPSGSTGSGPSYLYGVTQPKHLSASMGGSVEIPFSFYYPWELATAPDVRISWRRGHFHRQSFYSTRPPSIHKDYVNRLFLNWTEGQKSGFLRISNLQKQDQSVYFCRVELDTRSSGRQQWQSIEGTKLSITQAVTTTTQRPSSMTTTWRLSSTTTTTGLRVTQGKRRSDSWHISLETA
In words: SPR.

The target in assay [12] is T4, human PILRA G78 extracellular domain …. In words: SPR, Biacore 8K; antibody captured via anti-human Fab, recombinant ECD injected; 1:1 fit.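 Note: CM5 sensor chip, ECD analyte in threefold dilution series at 30 µL/min, 3 min association and 10 min dissociation, kon and koff fitted simultaneously.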
Method: (§2) Antibodies were captured on Biacore™ Series S CM5 sensor chips immobilized with mouse anti-human Fab (human Fab capture kit from GE Healthcare) followed by injections of serial 3-fold dilutions of recombinant ECD reagents at a flow rate of 30 μL/min. Each sample was analyzed using a 3-minute association followed by a 10-minute dissociation. After each injection, the sensor chip was regenerated using a 5 0 mM glycine pH2.0 regeneration buffer. A 1:1 Languir model of simultaneous fitting of kₒₙ and koff was used for kinetics analysis.
In assay [13] the target is T1, human PILRB extracellular domain …. In words: SPR, Biacore 8K, recombinant ECD.
For assay [14], the target named is T5, cynomolgus monkey PILRA extracellular …. As to the kind of experiment: SPR, Biacore 8K, recombinant ECD.
Assay [15] addresses T2, human PILRA G78 on cells. In words: flow cytometry on HEK293 cells expressing hPILRA G78. The source holds these as a separate data set.
Method: Parental HEK293 cells were labeled with NucBlue Live ReadyProbes Reagent for 30 mins. […] Antibody binding to the cells was detected by FACS and median fluorescence intensity (MFI) was derived from data analysis performed with the FLOJO software (FIGS. 1A-1C).
Assay [16] has as its target T2, human PILRA G78 on cells. In words: cell-based or functional assay. The source holds these as a separate data set.
Assay [17] addresses T5, cynomolgus monkey PILRA extracellular …. As to the kind of experiment: SPR, Biacore 8K; antibody captured via anti-human Fab, recombinant ECD injected; 1:1 fit.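 Note: CM5 sensor chip, ECD analyte in threefold dilution series at 30 µL/min, 3 min association and 10 min dissociation, kon and koff fitted simultaneously.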
Method: as §2
In a further assay the target is T7, human PILRB on cells (human, UniProt Q9UKJ0 20-227).
T7 construct: Expressed on CHO-K1 cells, or together with DAP12 on HEK293 cells (hPILRB-DAP12 OE HEK293); also called hPILRB; hPILRB-DAP12
T7 sequence (Q9UKJ0 20-227 limits assumed): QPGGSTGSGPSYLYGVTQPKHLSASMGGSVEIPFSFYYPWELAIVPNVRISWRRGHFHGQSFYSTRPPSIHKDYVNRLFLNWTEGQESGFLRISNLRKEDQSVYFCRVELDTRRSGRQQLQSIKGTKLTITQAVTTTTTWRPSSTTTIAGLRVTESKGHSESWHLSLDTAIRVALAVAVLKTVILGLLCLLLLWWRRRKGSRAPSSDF
As to the kind of experiment: flow cytometry (MFI), CHO-K1 cells expressing hPILRB.

Assay [18] deals with T3, human PILRA R78 on cells. As to the kind of experiment: flow cytometry on HEK293 PILRA R78 cells without sialidase treatment; without sialidase treatment.
Method: (§3) PILRA 78G or PILRA 78R expressing HEK293 cells were treated with SialEXO (Genovis). […] It is a combination of two sialidases acting on α2-3, α2-6 and α2-8 linkages. […] Cells were then washed twice and incubated and stained with NucBlue Live Stain for 30 mins at RT.
(§4) Following the same protocol, sialidase treatment was also performed on HEK cells expressing PILRA R78.
The target of assay [19] is T2, human PILRA G78 on cells. In words: flow cytometry on HEK293 PILRA G78 cells with sialidase treatment.
Method: as §3
The target of assay [20] is T2, human PILRA G78 on cells. In words: flow cytometry on HEK293 PILRA G78 cells without sialidase treatment.
Method: as §3
Assay [21] concerns the target T3, human PILRA R78 on cells. In words: flow cytometry on HEK293 PILRA R78 cells with sialidase treatment; with sialidase treatment.
Method: as §3, §4

T1 sequence (Q9UKJ0 20-191 limits assumed): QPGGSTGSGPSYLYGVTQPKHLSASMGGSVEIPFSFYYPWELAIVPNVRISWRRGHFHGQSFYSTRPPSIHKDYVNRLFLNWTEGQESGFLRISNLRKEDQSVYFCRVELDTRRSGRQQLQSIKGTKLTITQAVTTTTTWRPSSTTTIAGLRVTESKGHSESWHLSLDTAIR
T5 sequence (chain, as listed by the source limits assumed): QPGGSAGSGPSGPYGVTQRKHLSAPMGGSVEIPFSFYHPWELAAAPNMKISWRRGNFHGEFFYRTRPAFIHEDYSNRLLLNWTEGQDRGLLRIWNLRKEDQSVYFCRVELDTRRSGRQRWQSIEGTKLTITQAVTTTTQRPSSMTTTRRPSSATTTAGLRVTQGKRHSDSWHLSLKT
T4 sequence (Q9UKJ1 20-197 R78G limits assumed): as the sequence (Q9UKJ1 20-197 limits assumed) above, with R59G counted along it
Method for human PILRB on cells: Antibody binding to the cells was detected by FACS and MFI was derived from data analysis performed with the FLOJO software.

B1: Anti-PILRA antibody clone 36 (antibody, V domains shown)
VH: EVQLVQSGAEVKKPGASVKVSCKASGYTFTEYYMYWVRQAPGQGLELIGRIDPEDGGTDYIEKFKNRVTLTADTSTSTAYLELSSLRSEDTAVYYCATTIRGTVFAFWGQGTLVTVSS
VL: DIQMTQSPSSLSASVGDRVTITCRPSEDIYNGLAWYQQKPGKAPKLLIYNANSLHTGVPSRFSGSGSGTDYTLTISSLQPEDFATYFCQQYYDYPLTFGQGTKVEIK
notes: Humanized
Take B1: the equilibrium dissociation constant (Kd) in assay [1] lay in the range of 42 to 97 nM.

B2: Anti-PILRA antibody clone 37 (antibody, V domains shown)
VH: EVQLVQSGAEVKKPGASVKVSCKASGYTFTEYYMYWVRQAPGQGLELIGRIDPEDGGTDYIEKFKNRVTLTADTSTSTAYLELSSLRSEDTAVYYCATTIRGTVFAFWGQGTLVTVSS
VL: DIQMTQSPSSLSASVGDRVTITCRASEDIFNGLAWYQQKPGKSPKLLIYNAKTLHTGVPSRFSGSGSGTDYTLTISSLQPEDFATYYCQQYYDYPLTFGQGTKVEIK
notes: Humanized
Consider B2, for which, in [1], the Kd is 100 to 150 nM.

B3: Anti-PILRA antibody clone 23 (antibody, V domains shown)
VH: EVQLVQSGAEVKKPGASVKVSCKASGYTFTEYYMYWVRQAPGQGLELIGRIDPEDGGTDYVEKFKNRATLTADTSTSTAYLELSSLRSEDTAVYFCASTIRGTVFVYWGQGTLVTVSS
VL: DIQMTQSPSSLSASVGDRVTITCRPSEDIYNGLAWYQQKPGKAPKLLIYNANSLHTGVPSRFSGSGSGTDYTLTISSLQPEDFATYYCQQYYDYPLTFGQGTKVEIK
notes: Humanized; also called Ab.23
Consider B3, for which the 50% effective concentration (EC50) in the assay with human PILRA G78 on cells [2] was 18.2 nM; in the assay with human PILRA R78 on cells [6], 3.7 nM; in the assay with human PILRA G78 on cells [7], 21.4 nM. Further, the “pSTAT3 S727 induction, EC50 (nM)” value was 20.1 nM with human PILRA G78 on cells [3] and 14.6 nM in the assay with human PILRA R78 on cells [4]. Besides, the “pSTAT3 S727 induction, Fold Over Background” value in the assay with human PILRA G78 on cells [3] was 23.6 fold; in the assay with human PILRA R78 on cells [4], 28.5 fold. The “pSTAT3 Y705 induction, EC50 (nM)” value in the assay with human PILRA G78 on cells [3] is 12.2 nM; in the assay with human PILRA R78 on cells [4], 7.55 nM. The “pSTAT3 Y705 induction, Fold Over Background” value worked out at 31.4 fold with human PILRA G78 on cells [3] and 36.2 fold with human PILRA R78 on cells [4]. The Kd in [5] was 0.495 nM; in assay [8] it was 117 nM; in assay [9], 2.8 nM; in assay [10], 7.3 nM; in assay [11] it was 47 nM.

B4: Anti-PILRA antibody clone 15 (antibody, V domains shown)
VH: EVQLVQSGAEVKKPGASVKVSCKASGYTFTEYYMYWVRQAPGQGLELIGRIDPEDGGTDYIEKFKNRSTLTADTSTSTAYLELSSLRSEDTAVYFCATTIRGTVFAFWGQGTLVTVSS
VL: DIQMTQSPSSLSASVGDRVTITCRASEDIFNGLAWYQQKPGKSPKLLIYNAKTLHTGVPSRFSGSGSGSDYTLTISSLQPEDFATYFCQQYYDYPLTFGQGTKVEIK
notes: Humanized; also called Ab.15
For the molecule B4, the figures for the EC50 with human PILRA G78 on cells [2], in the assay with human PILRA R78 on cells [6] and with human PILRA G78 on cells [7] were 9 nM, 2.7 nM and 11.2 nM, respectively. Also, the “pSTAT3 S727 induction, EC50 (nM)” value came out at 17.5 nM in the assay with human PILRA G78 on cells [3] and 12.7 nM with human PILRA R78 on cells [4]. Further, the figures for the “pSTAT3 S727 induction, Fold Over Background” value in the assay with human PILRA G78 on cells [3] and with human PILRA R78 on cells [4] were 32.2 fold and 24.8 fold, respectively. Moreover, the “pSTAT3 Y705 induction, EC50 (nM)” value with human PILRA G78 on cells [3] was found to be 16.9 nM; with human PILRA R78 on cells [4], 5.66 nM. Besides, the “pSTAT3 Y705 induction, Fold Over Background” value in the assay with human PILRA G78 on cells [3] is 33.5 fold; with human PILRA R78 on cells [4] it was 38.2 fold. The dissociation constant (Kd) was 0.917 nM in [5]; 95 nM in assay [8]; 0.65 nM in [9]; 0.72 nM in assay [10]; 10 nM in [11].

B5: Anti-PILRA antibody clone 10 (antibody, V domains shown)
VH: EVQLVQSGAEIRKPGESLKISCKGSGYSFTTYWIAWVRQMPGKGLEWMGIIYPGDSDTRYSPSFQGQVTISADKSITTAYLQWSSLKASDTGIYYCARTYYYFSGSHWDAFDIWGQGTMVTVSS
VL: DIQMTQSPSSVSAYVGDRVTITCRASQDIRDCLAWYQQKPGKAPKFLIYAASSFQSGVPSGFSGSGSGTDFTLTVTSLQPEDSATYYCQQTHSFPYTFGQGTKLEIK
notes: also called Ab; Clone 10
For B5, the Kd in assay [12] came out at 61 nM. Further, in [13], the binding result was “no binding”. Further, the binding result in assay [14] is “no binding”. In addition, the EC50 with human PILRA G78 on cells [15] came out at 1.28 nM. For the same molecule, in the assay with human PILRA G78 on cells [16], the “pSTAT3 Y705 induction, EC50 (nM)” value amounted to 5.69 nM and the “pSTAT3 Y705 induction, Fold Over Background” value amounted to 26.7 fold.

B6: Anti-PILRA antibody clone 11 (antibody, V domains shown)
VH: EVKLVESGGGLVRPGGSQKLSCAVSGFAFSGYDMSWVRQTPEKRLEWVATISNGGRHTYYPDSVKGRFTISRDNARNTLYLQMSSLRSEDTALYYCARQKTWDVHAMDYWGQGTSVTVSS
VL: QLVLTQSSSASFSLGASAKLTCTLSSQHSTYTIEWYQQQPLKPPKYVMELKKDGSHSTGDGIPDRFSGSSSGADRYLSISNIQPEDEAIYICGVGDTIKEQFVYVFGGGTKVTVL
B6: the equilibrium dissociation constant (Kd) in assay [12] was 140 nM; in [17] it was 110 nM. Besides, the binding result in assay [13] was “no binding”. In the assay with human PILRA G78 on cells [15], this molecule had an EC50 of 10.5 nM. Besides, in the assay with human PILRA G78 on cells [16], the “pSTAT3 Y705 induction, Fold Over Background” value came to 1.42 fold.

B7: Anti-PILRA antibody clone 4 (antibody, human IgG1, kappa, L234A L235A, V domains shown)
VH: EVQLVESGGGLVQPGRSLRLSCAASGFTFDDYAIHWVRQAPGKGLEWVSGMSWNSGSIGYGDSVKGRFTISRDNAKNSLYLQMNSLRAEDTAFYYCAKDKSIGAAGRFDSWGQGTLVTVSS
VL: not shown
notes: also called Ab; Clone 4; Ab.4
As for B7, the dissociation constant Kd stood at 8.3 nM in [12] and 7.4 nM in [17]. Further, the binding result is “no binding (tested: 100 nM)” with human PILRB on cells and “no binding” in assay [13]. In the assay with human PILRA G78 on cells [15], this molecule displayed an EC50 of 24.9 nM. Moreover, the “pSTAT3 Y705 induction, EC50 (nM)” value with human PILRA G78 on cells [16] was determined as 1.98 nM. The “pSTAT3 Y705 induction, Fold Over Background” value with human PILRA G78 on cells [16] was determined as 14.7 fold.

B8: Anti-PILRA antibody clone 5 (antibody, human IgG1, kappa, L234A L235A, V domains shown)
VH: QVQLVQSGAEVKKPGASVRVSCKASGYTFIGFYIHWVRQAPGQGLEWMGWINPESGDTTYAQKFQGRVTMTTDTSINTAYMDLNRLRSDDSAVYFCARGNWNFPDTFDFWGQGTMVIVSS
VL: DIQMTQSPSSLSASVGDRVTITCRSSQSISIYLNWHQQIPGKAPKLLIYVASSLQSGIPSRFSGRGSGTEFTLTISSLQPEDFATYYCQQSYSAPFTFGPGTKVDIKR
notes: also called Ab; Clone 5; Ab.5
As to B8, the EC50 stood at 1.3 nM with human PILRA R78 on cells [18]; 9.8 nM with human PILRA G78 on cells [19]; 32.5 nM in the assay with human PILRA G78 on cells [15]; 17 nM with human PILRA G78 on cells [20]; 0.9 nM with human PILRA R78 on cells [21]. Also, the Kd in [12] stood at 0.66 nM; in [17], 19 nM. Moreover, the binding result with human PILRB on cells is recorded as “no binding (tested: 100 nM)”; in [13], “no binding”. In addition, the “pSTAT3 Y705 induction, EC50 (nM)” value with human PILRA G78 on cells [16] was 1.51 nM. For the same molecule, the “pSTAT3 Y705 induction, Fold Over Background” value with human PILRA G78 on cells [16] is 15.8 fold.

B9: Anti-PILRA antibody clone 9 (antibody, V domains shown)
VH: QVQLQESGPGLVKPSGTLSLTCAVSGGSISSNNWWSWVRQPPGKGLEWIGEIYHFGTTTYNPSLKSRVTISVDKSKNQFSLKLSSLTAADTAVYYCARTLRDFYYYMDVWGKGTTVTVSS
VL: DIHMTQSPSSLSASVGDRVTITCRTSQNINTYLNWYQQRPGRAPKLLIYAASSLQSGVPSRFSGSGSGTDFILSISSLQPEDFATYYCQQSFNIPLTFGGGTKVEIK
notes: also called Ab; Clone 9
B9: in assay [12], the Kd is 1.6 nM. Besides, the binding result in [13] is listed as “no binding”. Besides, in [14], the binding result is given as “no binding”. Besides, it took 1.28 nM to reach a half-maximal effect in the assay with human PILRA G78 on cells [15] (EC50). Further, in the assay with human PILRA G78 on cells [16], the “pSTAT3 Y705 induction, EC50 (nM)” value was 5.93 nM and the “pSTAT3 Y705 induction, Fold Over Background” value came out at 16.9 fold.
